Target: ER-DEVD-Luc (mouse; firefly)
Assay: cell-based or functional assay

cleavage of the 90 kDa fusion to a 60 kDa polypeptide (western blot, 293T cells treated with staurosporine): 50%
Substance: caspase-3 (from UniProt P42574 29-277)

From patent publication US20040053332A1
